Here are results for 14 sequences from a protein production outcome set (Wang et al. 2014).

The series in a line: label from the status in PepcDB records.
As to “MLWGMETAVRPEPAPSPLREHLAAGLKGLHPAYFALVMATGIVSIVSDVLGLREAAALLFWLNVPAYAVLWLLVAARALRYPRALAADLASHQRGPGFFTSVAATCVLGLQLVLLRGDAAAALALWWVGMLLWCACTYAVFVALAVRDPKPTLGEGINGGWLVAVVATQSVVVLGTRALVPRYPGSEAVLFFLASLWLCGGMLYVWMISLIFYRYMFFRFSPSDLMPPYWINMGAVAISVVAGTSLAALAPGSAFLGALLPFVKGLTLMFWATATWWIPMLVLLGIWRHGGPSRIRIAYDPLYWGLVFPLGMYALCTYRLGELFAMPVLPWVARTFATVALAAWLLTAFGLAGRFLQLVVLAVRSLHAERGAAGPQPGSLERMARRS”, the protein production entry is on record as “failed”. The entry for “MDREALDRKRTWVTQGPIVKVILALATPIVAARLLAATQESVDAIFLGRVSTEDLAAPAAASPLLWLFAGLGIGINTTLSALVSQAIGARDYASAQRYASKLLGATLMLGAASALAIILTAETVFILQGFQGRSLEVALAYTLVEAVGMPFMLALFYFNAVMAASGDTRTPFKVSALSSILNVILDPILIFGLILLPPLGAVGAAVATVLARAAAVSIAFYLLLRGAPGFRVKPSMPDRQLIGHILRIGGPVSLQRLVVSMGFLVMMGIVARLGAPVVAAYNVSLVIIHIVQSATFGFNIATATVVGQNLGASNISRAVRAAYTGVALVFGLLSIGAVAIVGGRSMLVSLFTSIEEVQFYAERMISIVALGMPFLGAFFTAMGVARGSGRTAFISALGIARLWLLRIPAAYTLVYIYSLGDMGVWLAMTLSNIIAGTLAIAWVAGRTWAKPIVKRVPPEPLGEKPPAIPEPAINR” is “failed”; for “MSTPSPALFFNTVNAYQRSAAIKAAVELNVFTAISQGIESSQSLAQKCQTSERGMRMLCDYLVIIGFMTKQAEGYRLTSDSAMFLDRQSKFYVGDAIEFLLSPMITNGFNDLTAAVLKGGTAISSEGTLSPEHPVWVQFAKAMSPMMANPAQLIAQLVNENKIEPLKVLDISASHGLFGIAVAQHNPNAEIFGVDWASVLEVAKENARIQGVASRYHTIAGSAFEVDYGNDYDLVLLPNFLHHFDVATCEQLLRKIKTALAVEGKVIVFDFIPNSDRITPPDAAAFSLVMLATTPNGDAYTFAEYESMFSNAGFSHSQLHSLPTTQQQVIVAYK” it is “not failed”; for “AVPGEVRLQVKDLRSVGGSALNGVNMTLRAGQIYGIAGVGGNGQAELANALMGLPQATEGDIHLAPFGDLRNASAEQRRQLRIASIPADRYGAALAGSLSVAENFGIGNIHSGHYGSFWRLGYKRLKQDAQRAVESFDVQGVRSLDQKAALLSGGNAQKLVIAREFSRDPQLVLVHSPSRGLDVRATQAVHDRLRAARDAGAAVLLISEDLDEVLALADRIGVMNGGRIVAEFDHPADRQAIGKAMVSHD” it is “failed”. The entry for “MKYLKNKIIHFLIFGGIYMDVEVLARAHGQQLVGYEGIKPLSLMGFTSLWMFLVGGLCGVIIGGLNDRPGYYNLKMWKQVLIGGTTITLVELFSGIFFNLYLGLHLWDYSKDRFNFMGQIELKNCIWWYVLPILIIWLDDVLSCYFYGDDRPPSLIMYLVKLVTLR” is “failed”; for “MSTKSKIFLVLLVFCPLSFAAHWLGWGETTVFILAGLAIVPLAAFMGTATEEIAVVIGPNAGGLLNATFGNATELILAYIALKEGLIEVVKATLTGSIIGNLLLVMGFAVFLGGLRYKEQNFQPLAARLNASTMNLGVVAILLPTALQYTSTGVEETVLQNLSVAVAVVLIGVYLLSLVFSMGTHAYLYDVGVAENMEMPELGEDVSEPEPPTEEEKPNLWLWTGVLLVVTLGVAVESELLVGSLEVATESLGLTALFTGVIVLPIIGNAAEHATAVTVAMKDKMDLSMSVVMGSSLQIAFFVAPVLVIVGWAIGQPMDLNFNPFELVAVLVAVLIVNSISSDGTSNWLEGILLLATYAIVALAFFFHPTLV” it is “failed”; for “MRLYKIGLVLLLWVFAVTAQAELRFPALSGRVVDDAQMIEPTISALLTRQLQAHEQATGEQLVVVTLPDLQGASIEEFGYQLGRHWGIGQKDKNNGALLIVARDERKLRIEVGYGLEERLTDAQASVIINQVITPAFKTGQFSKGISDGVSAMLLVLGGTPLDEPTTVYDSGDSSSQDDFVQRHPLLFIFLVLLFILVIMVAQALGLITTTSGRGGGGGGGFGGFGGGSGGGGGFSGGGGSFGGGGSSGGWLEHHHHHH” it is “failed”. To “MMNETLKVIAERYSCRDFKNEMPSDELLQAIAEAAIQAPSGMNRQAWRVIVVKNKELMQEMEAEGLAYLAGMEDQSSYNRIMERGGRLFYGAPCMIVVPIDPTQYGPALVDCGILCQTIALAATSLGIANIMCGYTGLAFASGLRAEEFSKRLGFPEGYAFGCSVLLGHANTTKPPHVPDKDKITYVE” belongs “not failed”. Turning to “QSYSGGIRLDTLFIDEGFGSLDPESLDLAIQTLVDLQQTGRMIGVISHVSELKEQMALRIDVEPSRFGSTVSVKSQMLISK”, the protein production entry is on record as “failed”. To “LLKVEFYKLKRSKVFYLFIVLMIMQSMFVLIPIKENYLLNKTGQDMFLQSFPLQEFIFNTLIIGAFGYFIGKEFHSGYIKNLIVSGHKRINIVLSKAIVFCIGVAIISFIFPICTFVINSIRNGYGEKYSVEYMFEVSVIMLFVYLAIGSIVTMISFITKNIAITIALFYLI” belongs “failed”; to “MGLLGIVIALGAMIWLAFRGWSILIIAPAAALLAAATAGEPLLAHWTQTFMGTAAGFVAQFFPLFLLGALFGKLMDDSGSVTAIAEWMTRVLGPQRAMLAVVLAGALLTYGGVSLFVAFFVLAPMAHALFRAADIPPRLMPAAIVLGTSTFTMSALPGTPAIQNAIPMPFFSTTPFAAPGLGIVASAIMLTFGLWWLSQRENAARRRGEGYAIAEEEASPDEVAERPLIRELASTAREFDPAEALQGSRSDEPPAAFIALLPLAVVIVVNLLMSFVVLPRVDADYLGLPEWGATTLQAVSGVWSVIVALTAAILCLIALNFRRLPELRDSMGAGAHAAALPVLSVASLVGFGAVVASLPGFGVVRDWVLSIEGGPLVSLAVATNVLSALTGSASGGLTIALDALGGTYLTRAFDLGIDPAILHRVAVMSAGTLDTLPHNGAVVTLLAVCGATHRESYGGIVMVGIVGPMLALAAVIALGSWVGSF”, “failed”; to “MSLRHLYIEEGRTVCASATSRNRRPTSESPHSDDVVVVEGMLRGRPETRVHAMFDGFQGRHSAMWLAQNVMNYLNDLRDVNEEEITRQFERMDGDLRAANLPGGSSALIIFVRYEKKPTEARVVGRQIVPEGAKEFTSVAEALGGPLMPVVAMNFRRDPRAAKGIYTIHVASLGNSRCVLKSGRTAIHLSTPHTASSHKERHRVQAAGGVFTTVNGELLLGGVVPMTRAFGSFDFKKGGQGKLQQDLVSAVPDVTTFFAYPGDDIVAGTAGAFAHFRSHAAIAAAIALYPVSPETVLDAAKAMVVNAKRRKVTKNISTFVRHLPESRTRSQKMLEGTSGENGEEDFSIDRTNELTQALQAGFFSFLLYYEGHHHHHH”, “not failed”. To “MIFRLGDFRFPDDPARLYPDTPDRPWVLEIGFGDGRFWPHYARTFPEPPNYLGVEISGVSLLKAHRRLKDAGLTNAVLTKLPAEVLVAQVIPHGSLDAIIVNFPDPWPKAGHEDHRLLRVPFFQVAASRLKPGGAALLTTDHDEYFEFACAQAEASGVMRVERVGPPPAALETKYAQKWRDLGLGVNHARFVPTRHDPVPNGTFAPYSEEDPAVPHAVLTLPADFSPQHFDKLTVRGKTWTVVLLDLYATLRRGGWVALAHVVEGDLTQEVLVGITEREDGTHLVRLAKFGGPIITPGVKAAVGAVTEWLEGQGAVVKHRGY” belongs “failed”. The entry for “MAPKPVAVDAGHYRGTWLEIGRMPMLLTDGCVAGYSTYRQGKSADEVLVEDGCREGTPQGKLKTINGVGKIEDFASTKAKMRVRYPLLITFNYWVLYKSPDKSWFISANPSTEDVWVYARSVPSKAKLNRMMMKVRELGYDVKKLEFPLEHHHHHH” is “not failed”.
